# Assay results: US20230331820A1 (GlaxoSmithKline, published 2023)
# B1: mAb clone 12, 13 (antibody, V domains shown)
# VH: QVQLKESGPGLVAPSQSLSITCTVSGFSLTSYGVHWVRQPPGKGLEWLGVIWAGGSTNYNSALMSRLSISKDNSKSQVFLKMNSLQTDDTAMYFCARGGITSLHNYVMDYWGQGTSVTVSS
# VL: DIVLTQSPASLAVSLGQRATISCRASESVEYYGTSLMQWYQQKPGQPPKLLIYAASNVESGVPARFSGSGSGTHFSLNIHPVEEDDIAMYFCQQSRKVPSTFGGGTKLEIK
# notes: also called mAb 12; mAb12
# Experiments:
# [1] = target: gEgI mutant (338): HSV2 gEgI mutant heterodimer comprising gE and gI ectodomains with insertion of a (HSV2, UniProt P89475 21-416; P06764 21-256); experiment: ELISA, supernatant
# [2] = target: gI WT: HSV2 gI wildtype ectodomain (HSV2, UniProt P06764 21-256); experiment: ELISA, supernatant
# [3] = target: T1, gEgI mutant (P317R): HSV2 gEgI mutant heterodimer comprising gE and gI ectodomains with mutation P317R in gE (HSV2, UniProt P89475 21-416; P06764 21-256); experiment: SPR single-cycle kinetics, mAb captured on RAM; gEgI mutant batch 1
# [4] = target: T1, gEgI mutant (P317R): HSV2 gEgI mutant …; experiment: SPR single-cycle kinetics, mAb captured on RAM; gEgI mutant batch 2
# [5] = target: T2, gEgI WT: HSV2 gEgI heterodimer comprising gE and gI wildtype ectodomains (HSV2, UniProt P89475 21-416; P06764 21-256); experiment: Biacore SPR, gEgI CHO BMP1181 at 10 µg/ml for 180 s over the mAb
# [6] = target: T2, gEgI WT: HSV2 gEgI heterodimer …; experiment: Biacore SPR, gEgI HEK BMP1063 at 10 µg/ml for 180 s over the mAb
# [7] = target: T2, gEgI WT: HSV2 gEgI heterodimer …; experiment: SPR single-cycle kinetics, mAb captured on RAM, gEgI as analyte, 1:1 model
binder,measurement,setting,value
B1,binding result,[1],binds
same,binding result,[2],no binding
same,Kd,[3],7.68 nM
same,koff,[3],0.00325 s⁻¹
same,kon,[3],422000 M⁻¹ s⁻¹
same,Kd,[4],11.5 nM
same,koff,[4],0.00324 s⁻¹
same,kon,[4],280000 M⁻¹ s⁻¹
same,RU Ag/250 RU mAbs,[5],112 RU Ag/250 RU mAbs
same,RU Ag/250 RU mAbs,[6],108 RU Ag/250 RU mAbs
same,Kd,[7],6.89 nM
same,koff,[7],0.00197 s⁻¹
same,kon,[7],285000 M⁻¹ s⁻¹
